Laboratory results taken from IntAct's records for PubMed 17853893.

B1: Programmed cell death 6-interacting protein (Homo sapiens), Q8WUM4 (parent)
chain: MATFISVQLKKTSEVDLAKPLVKFIQQTYPSGGEEQAQYCRAAEELSKLRRAAVGRPLDKHEGALETLLRYYDQICSIEPKFPFSENQICLTFTWKDAFDKGSLFGGSVKLALASLGYEKSCVLFNCAALASQIAAEQNLDNDEGLKIAAKHYQFASGAFLHIKETVLSALSREPTVDISPDTVGTLSLIMLAQAQEVFFLKATRDKMKDAIIAKLANQAADYFGDAFKQCQYKDTLPKEVFPVLAAKHCIMQANAEYHQSILAKQQKKFGEEIARLQHAAELIKTVASRYDEYVNVKDFSDKINRALAAAKKDNDFIYHDRVPDLKDLDPIGKATLVKSTPVNVPISQKFTDLFEKMVPVSVQQSLAAYNQRKADLVNRSIAQMREATTLANGVLASLNLPAAIEDVSGDTVPQSILTKSRSVIEQGGIQTVDQLIKELPELLQRNREILDESLRLLDEEEATDNDLRAKFKERWQRTPSNELYKPLRAEGTNFRTVLDKAVQADGQVKECYQSHRDTIVLLCKPEPELNAAIPSANPAKTMQGSEVVNVLKSLLSNLDEVKKEREGLENDLKSVNFDMTSKFLTALAQDGVINEEALSVTELDRVYGGLTTKVQESLKKQEGLLKNIQVSHQEFSKMKQSNNEANLREEVLKNLATAYDNFVELVANLKEGTKFYNELTEILVRFQNKCSDIVFARKTERDELLKDLQQSIAREPSAPSIPTPAYQSSPAGGHAPTPPTPAPRTMPPTKPQPPARPPPPVLPANRAPSATAPSPVGAGTAAPAPSQTPGSAPPPQAQGPPYPTYPGYPGYCQMPMPMGYNPYAYGQYNMPYPPVYHQSPGQAPYPGPQQPSYPFPQPPQQSYYPQQ
partner: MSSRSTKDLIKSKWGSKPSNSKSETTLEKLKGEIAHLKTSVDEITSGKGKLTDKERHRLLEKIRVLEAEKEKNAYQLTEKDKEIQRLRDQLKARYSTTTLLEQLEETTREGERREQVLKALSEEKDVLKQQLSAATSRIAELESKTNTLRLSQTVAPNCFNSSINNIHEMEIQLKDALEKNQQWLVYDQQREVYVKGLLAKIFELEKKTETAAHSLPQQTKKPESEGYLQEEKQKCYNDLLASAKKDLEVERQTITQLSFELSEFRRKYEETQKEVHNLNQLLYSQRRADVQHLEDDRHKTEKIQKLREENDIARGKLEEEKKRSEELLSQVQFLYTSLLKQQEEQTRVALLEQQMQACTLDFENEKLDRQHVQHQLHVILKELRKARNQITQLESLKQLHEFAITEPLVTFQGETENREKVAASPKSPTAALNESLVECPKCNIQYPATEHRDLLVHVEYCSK

Variants of: B1
Details: with cep55_human CEP55, Q53EZ4
In the case of G800A;P801A;P802A, the “effect of a mutation on the interaction” value is reported as “disrupting interaction strength”.
